± gives the standard deviation.

From the supplement of paper PMC10567573 come the findings set out here.

A short description of the data set: protein stability index of a GFP-peptide fusion (GPS, HEK-293T) (PSI 1-6); higher = more stable.
Setting [1] is: treatment: DMSO, c terminus: a fixed tail appended.
The mark [2] stands for this setting: treatment: MLN4924 1 uM, 8 h, c terminus: a fixed tail appended.
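Also: 24-mer peptide tiles fused after GFP, lentivirally expressed, FACS-sorted into six equal bins by GFP/DsRed ratio, decoded by Illumina sequencing, PSI is the read-weighted mean bin number.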

For KGKKLYPVVSAVWGHCEIRMRYLN [SPSB1], the protein stability index worked out at 2.23 ± 0.35 under setting [1] and 2.26 ± 0.23 under setting [2].

In the case of KIFVENLRRQKSLRLEWETQQELR [IQUB], the protein stability index runs as follows: under setting [1], 2.69 ± 0.43; under setting [2], 2.93 ± 0.46.

For KILAEAAKLVPMGFTTATEFHQRR [RAD51], the protein stability index reads like this: under setting [1], 2.56 ± 0.23; under setting [2], 2.7 ± 0.52.

Regarding KIPGTGALASAAAAVSGSKAKAE [RTN2], the protein stability index (treatment: DMSO, c terminus: native) worked out at 5.34 ± 0.14 and the protein stability index (treatment: MLN4924 1 uM, 8 h, c terminus: native) amounted to 5.32 ± 0.14.

With KIQLSDSEAKSHSSADDASAWSNI [FAN1], the protein stability index was found to be 4.757 ± 0.032 under setting [1] and 4.74 ± 0.11 under setting [2].

Turning to KISYIGLMTQSSLETHHYVDCGGN [TMEM106C], the protein stability index by setting is: under setting [1], 2.48 ± 0.24; under setting [2], 2.45 ± 0.24.

As for KKIEFGVVYSCVEGKMYTARKGKG [IMPA1], the protein stability index is, setting by setting: under setting [1], 3.06 ± 0.075; under setting [2], 3.24 ± 0.12.

Turning to KKQAGRPKGSKGKEKDSPFKPKLY [RBBP5], the protein stability index is, setting by setting: under setting [1], 3.74 ± 0.26; under setting [2], 3.91 ± 0.28.

On to KKTSITQQPSKHRTDEELQPPTTT [PLK2], for which the protein stability index is 5.27 ± 0.2 under setting [1] and 5.26 ± 0.16 under setting [2].

On to KKTWKILTIMPYNSAHHCVVEVEN [KLHL14], for which the protein stability index is 2.27 ± 0.37 under setting [1] and 2.64 ± 0.26 under setting [2].

Regarding KLATCYFFTVEFGLCKQDGQLRVF [TPH1], the protein stability index is, setting by setting: under setting [1], 2.59 ± 0.47; under setting [2], 2.97 ± 0.56.

In turn, KLCTAHMCSTLEHNCAHFCINIPG [MATN2] returned a protein stability index under setting [1] of 2.22 ± 0.38 and a protein stability index under setting [2] of 2.22 ± 0.29.

On to KLIDRLEKKDLKLEPPEEEIIEGN [NECAB1], for which the protein stability index under setting [1] was determined as 4.88 ± 0.32 and the protein stability index under setting [2] came to 4.8 ± 0.19.

With KLKPHEEPLRSEILSGKFTILNVR [PTPN9], the protein stability index was determined as 3.01 ± 0.14 under setting [1] and 2.96 ± 0.11 under setting [2].

For KLPLPVTIKSHLKSFSMANGMNAV [RAB40C], the protein stability index came out at 2.36 ± 0.18 under setting [1] and 2.46 ± 0.093 under setting [2].

For the sequence KLQVSQQEDITKSLLVTELGSSRT [IMPA1], the protein stability index was 4.18 ± 0.28 under setting [1] and 4.28 ± 0.25 under setting [2].

Regarding KNMDQVAPVANSYRGTLKRQPAFD [ETS2], the protein stability index turned out to be 3.99 ± 0.41 under setting [1] and 4.15 ± 0.21 under setting [2].

As to KPGKGADLSKPPCRKAKEIRKERK [ATE1], the protein stability index reads like this: under setting [1], 4.65 ± 0.44; under setting [2], 5.04 ± 0.3.

For KPGLRRSPIKKVRKSLALDIVDED [MYBL2], the protein stability index worked out at 4.84 ± 0.5 under setting [1] and 4.92 ± 0.48 under setting [2].

KPYNCLQCLDKTNESALVKEKELS [MTUS2]: the protein stability index by setting is: under setting [1], 4.74 ± 0.14; under setting [2], 4.59 ± 0.23.

Consider KRTYWPDLDAKIREALVLRSVRVR [PLD5], for which the protein stability index runs as follows: under setting [1], 2.4 ± 0.36; under setting [2], 2.77 ± 0.38.

With KRYAGREEHWVGLKKEPGHPWKWS [CD69], the protein stability index by setting is: under setting [1], 2.76 ± 0.22; under setting [2], 2.83 ± 0.2.

On to KSPSSPQAAFTQQGMEGIKVFLHE [TBX5], for which the protein stability index by setting is: under setting [1], 3.58 ± 0.23; under setting [2], 3.68 ± 0.26.

For the sequence KSSGRFLWIKFFAAGELESMGFSA [NETO1], the protein stability index runs as follows: under setting [1], 2.59 ± 0.54; under setting [2], 2.64 ± 0.73.

KSVQGTGLAFIAFTEAMTHFPASP [SLC6A17]: the protein stability index reads like this: under setting [1], 2.19 ± 0.49; under setting [2], 2.22 ± 0.12.

As for KTRRKTSARDASPTPSTDAEYPAN [NCK2], the protein stability index reads like this: under setting [1], 5.31 ± 0.21; under setting [2], 5.45 ± 0.17.

Consider KVYPVQEALAVLEPYARLPPHKHV [TRIB3], for which the protein stability index runs as follows: under setting [1], 3.02 ± 0.26; under setting [2], 3.09 ± 0.15.

Regarding KYDPKTQEWSFLPSITRKRRYVAS [KLHL12], the protein stability index is, setting by setting: under setting [1], 3.15 ± 0.4; under setting [2], 2.93 ± 0.27.

Consider KYPSHSFIGEESVAAGEKSILTDN [IMPA1], for which the protein stability index is, setting by setting: under setting [1], 4.66 ± 0.24; under setting [2], 4.75 ± 0.1.

LALYVLFLADEEFDVVVCDQVSAC [ALG2]: the protein stability index is 2.92 ± 0.44 under setting [1] and 2.59 ± 0.59 under setting [2].

For the sequence LAVLDWNQRAMDLYKALGAQDLTE [SAT2], the protein stability index under setting [1] worked out at 2.41 ± 0.24 and the protein stability index under setting [2] is 2.42 ± 0.19.

In the case of LDSEKRTPLHVAAFLGDAEIIELL [ANKRD44], the protein stability index was found to be 2.95 ± 0.12 under setting [1] and 3.03 ± 0.32 under setting [2].

With LEAAEALLTLRNSAQAPPDSISLH [DMRTC1], the protein stability index was determined as 4.42 ± 0.18 under setting [1] and 4.27 ± 0.25 under setting [2].

As for LEEELRQLKEEMARHLREYQELLN [PRPH], the protein stability index runs as follows: under setting [1], 3.27 ± 0.11; under setting [2], 3.62 ± 0.32.

As to LEGEEENELTLNEKNFFPEYNYDW [CHGB], the protein stability index reads like this: under setting [1], 4.21 ± 0.37; under setting [2], 4.46 ± 0.28.

For the sequence LEISGIIMSRVNAYQQGVGYQMLG [PHTF1], the protein stability index was found to be 2.81 ± 0.35 under setting [1] and 2.63 ± 0.51 under setting [2].

For LEKPPAPNQAMVVAAAGDACPPQH [TBC1D10A], the protein stability index under setting [1] worked out at 5.21 ± 0.21 and the protein stability index under setting [2] is 5.2 ± 0.33.

Turning to LEPPTMRKKRLLDRKVLLKSDSPT [GOLPH3L], the protein stability index reads like this: under setting [1], 4.38 ± 0.21; under setting [2], 4.54 ± 0.17.

Consider LESRQRSLEQANRSLQLRIQELEL [TFE3], for which the protein stability index is, setting by setting: under setting [1], 3.97 ± 0.27; under setting [2], 3.98 ± 0.4.

Regarding LETFGHLLSIGPELPKPEVISQLE [ZNF8], the protein stability index is, setting by setting: under setting [1], 3.94 ± 0.38; under setting [2], 3.93 ± 0.19.

In the case of LEVERQENEQRRLFIQKEEQLQQI [MNAT1], the protein stability index reads like this: under setting [1], 4.6 ± 0.36; under setting [2], 4.64 ± 0.17.

As to LFAPTLIYRDSYPRNPTVRWGYVA [SOAT1], the protein stability index is 2.44 ± 0.55 under setting [1] and 2.06 ± 0.35 under setting [2].

LFLRCSLRHKDEEEEDDDDIHITA [DRICH1]: the protein stability index runs as follows: under setting [1], 3.03 ± 0.35; under setting [2], 3.23 ± 0.28.

In turn, LFQILSERQDMYQCLVEGCTEKFK [ZNF511] displayed a protein stability index under setting [1] of 2.24 ± 0.35 and a protein stability index under setting [2] of 2.54 ± 0.6.

As for LGCALLAAHAVVLCALPVHVAVEH [SOAT2], the protein stability index is, setting by setting: under setting [1], 3.43 ± 0.35; under setting [2], 3.09 ± 0.51.

In turn, LGIHEDSTNRRRLSELLRYHTSQS [HSP90AB1] showed a protein stability index under setting [1] of 3.5 ± 0.22 and a protein stability index under setting [2] of 3.71 ± 0.24.

Regarding LGKLIPRHQSIFKSNGFFHGISIP [CDKL4], the protein stability index reads like this: under setting [1], 2.17 ± 0.052; under setting [2], 2.23 ± 0.41.

In the case of LGKMLIGLAGYLSGYDGTFLFQKP [POMT2], the protein stability index is, setting by setting: under setting [1], 2.65 ± 0.86; under setting [2], 2.45 ± 0.79.

LGLDNRLFGHPGLDMELGPSQGQE [ADAMTSL2] yielded a protein stability index under setting [1] of 4.84 ± 0.21.

With LGQQQRDMRRDEEGSLCAAHLPKA [FBF1], the protein stability index came to 4.97 ± 0.35 under setting [1] and 5.11 ± 0.16 under setting [2].

For the sequence LGRGLVGGQEEASQEAGLPAGAGP [SEPHS2], the protein stability index by setting is: under setting [1], 5.23 ± 0.47; under setting [2], 4.75 ± 0.65.

As for LGRSHDTVQEAATSRRARASKKTA [MFSD9], the protein stability index came to 5.2 ± 0.21 under setting [1] and 5.31 ± 0.16 under setting [2].

For the sequence LGSSAASTALERPSFLSQTGHGVS [FCHO1], the protein stability index reads like this: under setting [1], 4.28 ± 0.45; under setting [2], 4.2 ± 0.24.

On to LGWNSTERSLRLQARYHDTPYKPP [MYORG], for which the protein stability index runs as follows: under setting [1], 2.88 ± 0.3; under setting [2], 3.2 ± 0.22.

LGYAVSTFAMVKGYFFPTSARDCK [DHCR7]: the protein stability index reads like this: under setting [1], 2.09 ± 0.11; under setting [2], 2.09 ± 0.13.

LHEEEHVLLMAICIVSPDRPGVQD [VDR]: the protein stability index is, setting by setting: under setting [1], 2.44 ± 0.29; under setting [2], 2.24 ± 0.25.

On to LIALANRFCLPHLVALAEQHAVQE [RHOBTB1], for which the protein stability index stood at 3.16 ± 0.47 under setting [1] and 3.33 ± 0.47 under setting [2].

Take LIKTIETRNGEVVTESQKEQRSEL [PRPH]: the protein stability index under setting [1] came out at 4.91 ± 0.52 and the protein stability index under setting [2] was found to be 4.67 ± 0.53.

With LINTSDTVQHGAVYSLEPRLCGGK [SDE2], the protein stability index turned out to be 3.97 ± 0.43 under setting [1] and 3.97 ± 0.33 under setting [2].

On to LIPQPLDSEEDEKMEEDIKEEEEK [PCMTD1], for which the protein stability index under setting [1] is 5.66 ± 0.23 and the protein stability index under setting [2] is 5.67 ± 0.22.

Take LIQNGGEIDCVDKDGNTPLHVAAR [ANKRD44]: the protein stability index was found to be 4.32 ± 0.087 under setting [1] and 4.53 ± 0.16 under setting [2].

Take LIYGSMEMFPAAQQLYRHGKAYRF [JAGN1]: the protein stability index was 2.28 ± 0.36 under setting [1] and 2.21 ± 0.093 under setting [2].

For the sequence LKGARLTVEQGCQILDSLSYMRNE [FBXO39], the protein stability index was 2.68 ± 0.35 under setting [1] and 2.85 ± 0.38 under setting [2].

The sequence LKPFFMKEVGSHFDDFVTNLIEKS [SOAT1] displayed a protein stability index under setting [1] of 2.48 ± 0.32 and a protein stability index under setting [2] of 2.88 ± 0.13.

On to LKVKCLNNLAASQLKLDHYRAALR [FKBP8], for which the protein stability index was 2.28 ± 0.31 under setting [1] and 2.19 ± 0.47 under setting [2].

The sequence LLADVKGARAALNEIESRHRELLR [STX11] displayed a protein stability index under setting [1] of 3.03 ± 0.23 and a protein stability index under setting [2] of 3.3 ± 0.41.

With LLDALSPEQLVLTLLEAEPPHVLI [ESR2], the protein stability index runs as follows: under setting [1], 2.55 ± 0.57; under setting [2], 2.08 ± 0.18.

LLDELMGRDRNLAPDEKRSNVRWD [LUC7L3]: the protein stability index under setting [1] came to 3.59 ± 0.21 and the protein stability index under setting [2] turned out to be 3.64 ± 0.19.

On to LLEDARRKGMPFAQWDGPTVVSWL [PPFIA4], for which the protein stability index was 2.11 ± 0.15 under setting [1] and 2.01 ± 0.33 under setting [2].

Turning to LLEKVPCTLEQDHFKKQTIYRFLK [FEM1C], the protein stability index came to 2.38 ± 0.83 under setting [1] and 2.31 ± 0.23 under setting [2].

On to LLFSLTQFSVVSVVAYLALAALSA [RTN1], for which the protein stability index reads like this: under setting [1], 3.4 ± 0.54; under setting [2], 3.24 ± 0.058.

Sequence LLKPHSYGRFIRWLNKEKGIFKIE [SPDEF] registered a protein stability index under setting [1] of 2.49 ± 0.66 and a protein stability index under setting [2] of 2.4 ± 0.46.
